Reference: publication PMC8600398
pKd: −log10 of the molar value.

Assays:
[1] = target: T1, 6His-CRP (cAMP receptor protein) (Escherichia coli (K-12 MG1655?)) (UniProt P0ACJ8); experiment: EMSA; details: 10 mM Tris-HCl pH 7.5, 50 mM NaCl, 5 mM MgSO4, 1 mM DTT, 1 mg/ml BSA, 200 uM cAMP, 10% glycerol, 12 ug/ml poly(dI-dC), 5 nM DNA, 37 C 15 min; 5% PAGE 0.25X TBE …
T1 sequence: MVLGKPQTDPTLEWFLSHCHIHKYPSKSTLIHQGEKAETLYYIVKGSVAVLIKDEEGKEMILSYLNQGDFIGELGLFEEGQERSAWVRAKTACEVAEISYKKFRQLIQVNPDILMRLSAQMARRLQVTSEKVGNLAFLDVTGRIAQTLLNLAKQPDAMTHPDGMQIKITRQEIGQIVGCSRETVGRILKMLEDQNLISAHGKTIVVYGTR

[2] = test system: 6His-CRP (cAMP receptor protein) (Escherichia coli (K-12 MG1655?)); experiment: EMSA; details: 10 mM Tris-HCl pH 7.5, 50 mM NaCl, 5 mM MgSO4, 1 mM DTT, 1 mg/ml BSA, 200 uM cAMP, 10% glycerol, 12 ug/ml poly(dI-dC), 5 nM DNA, 37 C 15 min; 5% PAGE 0.25X TBE …

Row | Substance | binding [1] | pKd [2]
1 | GCCTACCGCATCCGCTTGCGTATCGACGGCGTATTGCATCCTTTACCGGATGTTTCACCGGATGCCGGAGTCGCATTAACCGCCAGATTAAAAGTGCTGGGAAACCTGG (double strand) | no binding | –
2 | ytfK promoter region -515/+3 | – | 7.60
